Test results published in patent US8728749B2, “Detection of LCAT activity” (priority 2010, dated 2014).

What was measured:
[1] = target: T1, rhLCAT (Homo sapiens, UniProt P04180); assay: LCAT activating potential of LCAT-activating peptides in mHDL substrate (DHE fluorescence / cholesterol oxidase assay); format: biochemical; conditions: specific activity of rhLCAT with peptide/POPC/DHE substrate, 50 μM DHE, relative to SEQ ID NO: 1
T1 construct: made in house; host or cells: HEK293f cells, stably transfected with pcDNA3.1/Hygro carrying the LCAT insert from Origene pCMV6-XL4/LCAT
T1 sequence (P04180 25-440): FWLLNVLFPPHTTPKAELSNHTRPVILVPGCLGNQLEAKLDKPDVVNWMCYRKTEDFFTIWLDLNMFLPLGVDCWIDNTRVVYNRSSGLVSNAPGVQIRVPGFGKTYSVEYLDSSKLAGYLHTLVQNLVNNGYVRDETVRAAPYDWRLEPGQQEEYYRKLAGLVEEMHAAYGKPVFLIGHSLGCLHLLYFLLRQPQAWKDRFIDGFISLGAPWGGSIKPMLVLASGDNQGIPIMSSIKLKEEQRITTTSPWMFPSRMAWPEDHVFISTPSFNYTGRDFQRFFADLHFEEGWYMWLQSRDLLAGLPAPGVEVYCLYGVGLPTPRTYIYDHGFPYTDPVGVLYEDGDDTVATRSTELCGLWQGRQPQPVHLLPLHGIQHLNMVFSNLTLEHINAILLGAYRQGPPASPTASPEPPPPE
Description: Recombinant human LCAT (rhLCAT), isolated from cells expressing human LCAT (Example 5), was diluted into phosphate buffer containing 5 mM β-mercaptoethanol and 60 μM bovine serum albumin to obtain rhLCAT concentrations that would deliver the indicated mass of rhLCAT to assay samples in a 5 μL volume. Substrate, prepared as in Example 1, was diluted to 62.5 μM DHE with phosphate buffer containing 5 mM β-mercaptoethanol and 60 μM bovine serum albumin. One hundred microliter volumes of the diluted substrate were added to individual wells of a black, polystyrene 96-well plate (Whatman 7701-2350) which had previously been loaded with 5 μL of rhLCAT. Blank and control wells were not loaded with rhLCAT. The plate was covered and incubated at 37° C. for one hour. The reaction was quenched by the addition of 25 μL phosphate buffer containing 2% Triton X-100 and 5 units/ml COx (Streptomyces sp.) to all wells except control wells, which received 2% Triton X-100 without COx. The plate was returned to the incubator for one hour, then equilibrated to 37° C. in the plate reader and scanned for DHE fluorescence. Percent fluorescence was calculated from the ratio of the average fluorescence of duplicate wells treated with COx to the average fluorescence of the control wells. The amount of fluorescence remaining after oxidation is directly proportional to the amount of DHE esterified by LCAT. The line represents the fit of the data by linear regression. (FIG. 4).
(§1) Two microliter aliquots of plasma were added to separate assay wells followed by 100 microliters of substrate (Example 2). The assay plate was incubated for 2 hours at 37° C. followed by quenching with COx (Example 2). The nmoles DHE ester formed in each sample was calculated by subtracting the average fluorescence of the blank wells from the fluorescence of each sample well to obtain net fluorescence. The average net fluorescence of sample wells at each rhLCAT level was then divided by the average net fluorescence of control wells and multiplied by the DHE per well, which was 6.25 nmoles, to yield the nmoles of DHE ester formed. The line represents the fit of the data by linear regression. The activity detected at 0 μg/ml rhLCAT (Y-intercept) is the activity of endogenous mouse LCAT in the plasma (FIG. 5).
LCAT-activating peptides, which are produced by solid-phase synthesis (GenScript USA, Inc), are dissolved in methanol at 5 mM concentration. Three hundred and ninety seven microliters of 5 mM LAP and 357 microliters of a chloroform solution containing 25 mM POPC and 2.8 mM DHE are added to a glass vial. The solvents are evaporated by directing a gentle stream of inert gas (e.g. nitrogen) into the vial. Residual solvent is removed by high vacuum for 2 hours. The dried mixture is dispersed in 2 milliliters of phosphate buffer (150 mM NaCl, 50 mM sodium phosphate, 1 mM EDTA, pH 7.4) to obtain a final DHE concentration of 0.5 mM. The vial is flushed with inert gas and capped after buffer addition. The dispersion is obtained by vortexing and brief (10 to 30 seconds) sonication in a water bath sonicator. The substrate is protected from light and stored with inert gas in the capped vial at 2-8° C.
The LCAT activating potential of LAP is determined with the protocol described in Example 2 at a DHE concentration of 50 μM and with the rhLCAT concentrations indicated. A linear regression fit of nmoles DHE ester formed, calculated as in Example 3, versus rhLCAT in the sample yields the specific activity (nmol DHE ester/μg LCAT/hour) of rhLCAT with substrate. This protocol was used to compare and characterize the LCAT activating potential of amphipathic peptides with mean hydrophobicities and mean hydrophobic moments that were sufficient to enable the peptides to form stable micelle complexes with phosphatidylcholine and DHE (Table 3).

[2] = Time course of LCAT activity in plasma from mice injected intravenously with rhLCAT; format: in vivo, transgenic mice expressing human apoA-I; conditions: intravenous, 10 mg/kg (30×), plasma collected at 1 hour post-dose
Description: as §1
The utility of the current invention to measure LCAT activity changes in vivo as a result of rhLCAT injection is shown in FIG. 6. Transgenic mice expressing human apoA-I (Jackson Laboratories) and maintained on chow diet were injected (intravenous) with rhLCAT in normal saline at doses of 1 mg/kg (3×), 3 mg/kg (10×) or 10 mg/kg (30×). Control animals were injected with saline alone. Plasma was prepared from blood samples collected at 0.1, 1, 5 and 24 hours following LCAT injection. […]

Substance: 2 (PTLDLFRELLNELLEALKQKLK) [compound 2]
- RELATIVE ACTIVITY (Percent activity relative to SEQ ID: 1) [1]: 94%

Substance: 3 (PSLDLFRELLNELLEALKQKLK) [compound 3]
- RELATIVE ACTIVITY (Percent activity relative to SEQ ID: 1) [1]: 87%

Substance: 4 (PVLDLFRELLNELLQKLKK) [compound 4]
- RELATIVE ACTIVITY (Percent activity relative to SEQ ID: 1) [1]: 86%

Substance: 5 (PTLDLFRELLNELLQKLKK) [compound 5]
- RELATIVE ACTIVITY (Percent activity relative to SEQ ID: 1) [1]: 65%

Substance: 6 (PVLDLFRELLEELLQKLKK) [compound 6]
- RELATIVE ACTIVITY (Percent activity relative to SEQ ID: 1) [1]: 65%

Substance: 7 (PVLDLFKELLEELFQKLKK) [compound 7]
- RELATIVE ACTIVITY (Percent activity relative to SEQ ID: 1) [1]: 56%

Substance: 8 (PVLDKFLELLEELFQKLKK) [compound 8]
- RELATIVE ACTIVITY (Percent activity relative to SEQ ID: 1) [1]: 15%

Substance: 9 (EWLKAFLEKVLEKLKELF) [compound 9]
- RELATIVE ACTIVITY (Percent activity relative to SEQ ID: 1) [1]: 55%

Substance: 10 (EWLKAFYEKVLEKLKELF) [compound 10]
- RELATIVE ACTIVITY (Percent activity relative to SEQ ID: 1) [1]: 43%

Substance: 11 (DWLKAFYDKVFEKFKEFF) [compound 11]
- RELATIVE ACTIVITY (Percent activity relative to SEQ ID: 1) [1]: 28%

Substance: 12 (EVLKNLLEKLLEKLKELF) [compound 12]
- RELATIVE ACTIVITY (Percent activity relative to SEQ ID: 1) [1]: 21%

Substance: 13 (DLWQRLLELFNELLEKLKQALK) [compound 13]
- RELATIVE ACTIVITY (Percent activity relative to SEQ ID: 1) [1]: 0%

Substance: 14 (DVFQALKELFAQLLEKWKQV) [compound 14]
- RELATIVE ACTIVITY (Percent activity relative to SEQ ID: 1) [1]: 0%

Substance: rhLCAT: recombinant human LCAT isolated from culture medium of HEK293f cells expressing human LCAT
- increase in LCAT activity in plasma [2]: 11 fold
